Results taken from PMC7374964 (BMC Biology, 2020).

Key:
Settings in all cases: one partner purified
[1] = molecular target: T1, HIV-1 ADA Env on CEM-NKR cells infected with the Nef- and Vpu-defective virus (NL4.3 GFP ADA/Nef-Vpu-), with … (HIV-1 ADA (Env clone not named); Homo …, UniProt Q6TAN8;P01730, strain); assay: flow cytometry on cells
T1 construct: also called ADA/N-U- infected cells; pNL43/ADA/N-U- infected CEM-NKR target cells; copies: 3 + 3 +

[2] = molecular target: T2, HIV-1 JRFL Env on pseudovirus particles treated with the CD4 mimetic peptide M48U1 (HIV-1 JRFL, UniProt Q75760, strain); assay: fluorescence correlation spectroscopy (FCS)
T2 construct: copies: 3 + 3 +

[3] = molecular target: T3, HIV-1 JRFL Env on free pseudovirus particles (HIV-1 JRFL, UniProt Q75760, strain); assay: fluorescence correlation spectroscopy (FCS)
T3 construct: copies: 3 + 3

[4] = molecular target: T4, HIV-1 BaL Env on free pseudovirus particles (HIV-1 BaL (Env clone not named), UniProt Q2MKA8, strain); assay: fluorescence correlation spectroscopy (FCS)
T4 construct: copies: 3 + 3

[5] = molecular target: T5, HIV-1 BaL Env on pseudovirus particles treated with the CD4 mimetic peptide M48U1 (HIV-1 BaL (Env clone not named), UniProt Q2MKA8, strain); assay: fluorescence correlation spectroscopy (FCS)
T5 construct: source: HIV-1 BaL pseudoviruses [72] treated for 90 min at 37 °C with 200 ug/ml of M48U1; copies: 3 + 3 +

Measured: binding result

B1: mAb X5 (antibody, V domains shown)
VH: VQLLEQSGAEVKKPGSSVQVSCKASGGTFSMYGFNWVRQAPGHGLEWMGGIIPIFGTSNYAQKFRGRVTFTADQATSTAYMELTNLRSDDTAVYYCARDFGPDWEDGDSYDGSGRGFFDFWGQGTLVTVSS
VL: ELVLTQSPGTLSLSAGERATLSCRASQSVSSGSLAWYQQKPGQAPRLLIYGASTRATGIPDRFSGSGSGTDFTLTIGRLEPEDLAVYYCQQYGTSPYTFGQGTKLEIK
notes: source: generated in house [15]
binds: all assays above
